Laboratory results taken from paper PMC10815852, “A Non-Functional Carbon Dioxide-Mediated Post-Translational Modification on Nucleoside Diphosphate Kinase of Arabidopsis thaliana” (International Journal of Molecular Sciences, 2024).
Residue numbers refer to the chain shown, from its start. “And” between values parts separate entries of the source, which are not always exact repeats. Equal values may be shown once.

Legend:
[1] = target: T1, AtNDK1 (Arabidopsis nucleoside diphosphate kinase 1) (Arabidopsis thaliana, UniProt P39207); assay: NDK assay, ATP formation by ATP determination kit; assay type: biochemical; settings: substrate inhibition by ADP (fit of Michaelis-Menten data with 0-100 μM ADP); 50 μM GTP; 2 mM MgCl2, pH 7.6, 25 °C
T1 construct: gene NDK1; full open reading frame in pGEX6P-1 (BamHI/EcoRI, synthetic), GST tag cut with PreScission protease, E. coli T7 Express, size exclusion purified, hexamer
T1 sequence (P39207 1-149): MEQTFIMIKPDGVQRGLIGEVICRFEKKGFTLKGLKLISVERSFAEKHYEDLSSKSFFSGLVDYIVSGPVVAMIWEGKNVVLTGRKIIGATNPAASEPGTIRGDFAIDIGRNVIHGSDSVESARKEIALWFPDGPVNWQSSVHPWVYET

[2] = target: T1, AtNDK1 (Arabidopsis nucleoside diphosphate kinase 1); assay: NDK assay, ATP formation by ATP determination kit; assay type: biochemical
[3] = substrate: Nc1nc2c(ncn2[C@@H]2O[C@H](COP(=O)(O)OP(=O)(O)OP(=O)(O)O)[C@@H](O)[C@H]2O)c(=O)[nH]1; assay: NDK assay, ATP formation by ATP determination kit; assay type: biochemical, Arabidopsis thaliana; settings: 35 μM ADP fixed, 0-100 μM GTP, 2 mM MgCl2, pH 7.6, 25 °C
[4] = substrate: Nc1ncnc2c1ncn2[C@@H]1O[C@H](COP(=O)(O)OP(=O)(O)O)[C@@H](O)[C@H]1O; assay: NDK assay, ATP formation by ATP determination kit; assay type: biochemical, Arabidopsis thaliana; settings: 50 μM GTP fixed, 0-100 μM ADP, substrate inhibition model, 2 mM MgCl2, pH 7.6, 25 °C
[5] = target: the molecule itself; assay: SEC; analytical SEC, Superose 6 increase 10/300 GL; 30 mM Tris pH 7.9, 200 mM NaCl, 1 mM DTT, 1 mM EDTA; sample ~1 mg/mL, 100 uL injected; size and oligomeric state approximated from retention volume and a standard curve; self-association (hexamer, dimer)
[6] = target: the molecule itself; assay: as above; remark: listed apart in the source

In the case of Nc1ncnc2c1ncn2[C@@H]1O[C@H](COP(=O)(O)OP(=O)(O)O)[C@@H](O)[C@H]1O [ADP], the Ki [1] is reported as 132000 nM.

Molecule Nc1nc2c(ncn2[C@@H]2O[C@H](COP(=O)(O)OP(=O)(O)OP(O)(O)=S)[C@@H](O)[C@H]2O)c(=O)[nH]1 [GTPγS, guanosine 5′-O-[γ-thio] triphosphate] has an IC50 [2] of 681 nM.

B1: Arabidopsis thaliana nucleoside diphosphate kinase 1 (AtNDK1), wild-type (enzyme, UniProt P39207 1-149, looked up)
chain: T1 sequence (P39207 1-149)
notes: Arabidopsis thaliana NDK1, open reading frame cloned into BamHI/EcoRI of pGEX6P-1; Hexamer by analytical SEC; also called WT AtNDK1; Arabidopsis NDK1; source: E. coli T7 express, purified (GSTrap, PreScission cleavage, glutathione agarose, SEC); not shown: GST, N-terminal, cleaved
B1 was tested, and the Km [3] was 22.4 µM, the Km [4] was 24.6 µM and the “stoichiometry N” value [5] was 6. The “relative absorbance maximum of the (AtNDK1)2 peak” value [6] was 0.1 and the “relative absorbance maximum of the (AtNDK1)6 peak” value [6] was 1.

B2: AtNDK1-K9R (enzyme, Arabidopsis thaliana, UniProt P39207 1-149, looked up)
chain: T1 sequence (P39207 1-149) with K9R
notes: Arabidopsis thaliana NDK1, mutant open reading frame cloned into BamHI/EcoRI of pGEX6P-1; Elutes as a mix of hexamer and dimer by analytical SEC; source: E. coli T7 express, purified (GSTrap, PreScission cleavage, glutathione agarose, SEC); not shown: GST, N-terminal, cleaved
B2 was tested, and the “stoichiometry N” value [5] was 6 and 2, the “relative absorbance maximum of the (AtNDK1)2 peak” value [6] was 0.25 and the “relative absorbance maximum of the (AtNDK1)6 peak” value [6] was 1.

B3: AtNDK1-K9A (enzyme, Arabidopsis thaliana, UniProt P39207 1-149, looked up)
chain: T1 sequence (P39207 1-149) with K9A
notes: as for B2
With B3 the “stoichiometry N” value [5] was 6 and 2, the “relative absorbance maximum of the (AtNDK1)2 peak” value [6] was 0.73 and the “relative absorbance maximum of the (AtNDK1)6 peak” value [6] was 1.

B4: AtNDK1-K9E (enzyme, Arabidopsis thaliana, UniProt P39207 1-149, looked up)
chain: T1 sequence (P39207 1-149) with K9E
notes: Arabidopsis thaliana NDK1, mutant open reading frame cloned into BamHI/EcoRI of pGEX6P-1; Elutes as a mix of hexamer and dimer by analytical SEC, dimer peak the larger; source: E. coli T7 express, purified (GSTrap, PreScission cleavage, glutathione agarose, SEC); not shown: GST, N-terminal, cleaved
B4 was tested, and the “stoichiometry N” value [5] was 6 and 2, the “relative absorbance maximum of the (AtNDK1)2 peak” value [6] was 1 and the “relative absorbance maximum of the (AtNDK1)6 peak” value [6] was 0.4.
